Data: patent US20140336110A1
Starred links: 1 amine or outer side, 2 acyl side, 3 side chain; linkers in the order of their positions; H or OH if unused. Non-standard residues stand in square brackets, D forms with d. Primed or numbered codes have the meaning given here. No end group written: not given here. *: point of attachment. PEG12 = NCCOCCOCCOCCOCCOCCOCCOCCOCCOCCOCCOCCOCCC(=O)O; Oic = O=C(O)[C@@H]1C[C@@H]2CCCC[C@@H]2N1; Dip = N[C@H](C(=O)O)C(c1ccccc1)c1ccccc1; Ida″ = O=C(CN(CC(=O)[*:3])[*:1])[*:2]; Palmitoyl = CCCCCCCCCCCCCCCC(=O)*; β3hF = N[C@H](CC(=O)O)Cc1ccccc1; NMeD = CN[C@@H](CC(=O)O)C(=O)O; β3hP = O=C(O)C[C@@H]1CCCN1; Ach = not defined here; Dpa = not defined here

Experiments:
[1] = biological target: ferroportin tagged at the C-terminus with green fluorescent protein [GFP: P42212]; assay: cell-based or functional assay
[2] = biological target: ferroportin tagged at the C-terminus with green fluorescent protein [GFP: P42212]; assay: cell-based or functional assay; remark: listed apart in the source

| Binder | EC50 (nM) in vitro [1] [nM] | also measured |
| --- | --- | --- |
| [NMeD]TH[Dpa][β3hP]RCR[β3hF] (reading uncertain; also: R14 = Palmitoyl-PEG-miniPEG3- substituent, attachment not placed) [PR57] | 2 | – |
| DTHAPICIFCCGCCHRSKCGMCCKT [Hep25 F4A] | – | relative hepcidin activity (FIG. 1) [2]: > 70 % decrease |
| DTHFPICIACCGCCHRSKCGMCCKT [Hep25 F9A] | – | relative hepcidin activity (FIG. 1) [2]: > 70 % decrease |
| [Ida″]TH[Dpa]PICI[β3hF] (reading uncertain; also: R14 = Palmitoyl-PEG-miniPEG3- substituent, attachment not placed) [PR58] | 1 | – |
| [NMeD]TH[Dpa][β3hP]ICI[β3hF] (reading uncertain; also: R14 = Palmitoyl-PEG-miniPEG3- substituent, attachment not placed) [PR54] | 10 | – |
| {Palmitoyl-PEG12}-FVCVP[Dip]HTD (not fully specified (C-terminus); printed as R4-F-V-C-V-P-Dpa-H-T-D; also: retroinverted, D residues underlined, underlining lost) [PR51] | 100 | – |
| {Palmitoyl-PEG12}-FICIP[Dip]H (not fully specified (C-terminus); printed as R4-F-I-C-I-P-Dpa-H; also: retroinverted, D residues underlined, underlining lost) [PR49] | < 10 | – |
| {Palmitoyl-PEG12}-FLCLP[Dip]HTD (not fully specified (C-terminus); printed as R4-F-L-C-L-P-Dpa-H-T-D; also: retroinverted, D residues underlined, underlining lost) [PR52] | < 10 | – |
| [NMeD]TH[Dpa][Oic]RCR[β3hF] (reading uncertain; also: R14 = Palmitoyl-PEG-miniPEG3- substituent, attachment not placed) [PR56] | 15 | – |
| {Palmitoyl-PEG12}-FICIP[Dip]HTD (not fully specified (C-terminus); printed as R4-F-I-C-I-P-Dpa-H-T-D; also: retroinverted, D residues underlined, underlining lost) [PR47] | 50 | – |
| DTHFPICIF-NH2 [Hep9 (Hep1-9)] | – | potency against Hep25 on a mass basis, flow-cytometry assay of ferroportin-GFP internalization (times less potent than Hep25) [2]: 4; potency against Hep25 on a molar basis, flow-cytometry assay of ferroportin-GFP internalization (times less potent than Hep25) [2]: 10 |
| {Palmitoyl-PEG12}-[Dip]ICIP[Dip]H (not fully specified (C-terminus); printed as R4-Dpa-I-C-I-P-Dpa-H; also: retroinverted, D residues underlined, underlining lost) [PR50] | < 10 | – |
| DTHFPIAIFC-NH2 [Hep10 (Hep1-10 C7A)] | – | potency against Hep25 on a mass basis, flow-cytometry assay of ferroportin-GFP internalization (times less potent than Hep25) [2]: 4; potency against Hep25 on a molar basis, flow-cytometry assay of ferroportin-GFP internalization (times less potent than Hep25) [2]: 10 |
| {Palmitoyl-PEG12}-[Dip]ICIP[Dip]HTD (not fully specified (C-terminus); printed as R4-Dpa-I-C-I-P-Dpa-H-T-D; also: retroinverted, D residues underlined, underlining lost) [PR48] | 50 | – |
| [Ida″]TH[Dpa][β3hP]ICI[β3hF] (reading uncertain; also: R14 = Palmitoyl-PEG-miniPEG3- substituent, attachment not placed) [PR59] | 2 | – |
| [NMeD]TH[Dpa]P[Ach]C[Ach]F (reading uncertain; also: R14 = Palmitoyl-PEG-miniPEG3- substituent, attachment not placed) [PR55] | 10 | – |
| [NMeD]TH[Dpa]PICI[β3hF] (reading uncertain; also: R14 = Palmitoyl-PEG-miniPEG3- substituent, attachment not placed) [PR53] | 10 | – |
| [Ida″]TH[Dpa]P[Ach]C[Ach]F (reading uncertain; also: R14 = Palmitoyl-PEG-miniPEG3- substituent, attachment not placed) [PR60] | 3 | – |
